Assay in all cases: flow cytometry, Fab on HEK-293T cells expressing the mutant; labels of this column stand one row too low, mutant assigned after shifting them up
In one assay the target is T1, human CD131 H147A (human, UniProt P32927 17-897).
T1 construct: whole, on cells
T1 sequence (looked up): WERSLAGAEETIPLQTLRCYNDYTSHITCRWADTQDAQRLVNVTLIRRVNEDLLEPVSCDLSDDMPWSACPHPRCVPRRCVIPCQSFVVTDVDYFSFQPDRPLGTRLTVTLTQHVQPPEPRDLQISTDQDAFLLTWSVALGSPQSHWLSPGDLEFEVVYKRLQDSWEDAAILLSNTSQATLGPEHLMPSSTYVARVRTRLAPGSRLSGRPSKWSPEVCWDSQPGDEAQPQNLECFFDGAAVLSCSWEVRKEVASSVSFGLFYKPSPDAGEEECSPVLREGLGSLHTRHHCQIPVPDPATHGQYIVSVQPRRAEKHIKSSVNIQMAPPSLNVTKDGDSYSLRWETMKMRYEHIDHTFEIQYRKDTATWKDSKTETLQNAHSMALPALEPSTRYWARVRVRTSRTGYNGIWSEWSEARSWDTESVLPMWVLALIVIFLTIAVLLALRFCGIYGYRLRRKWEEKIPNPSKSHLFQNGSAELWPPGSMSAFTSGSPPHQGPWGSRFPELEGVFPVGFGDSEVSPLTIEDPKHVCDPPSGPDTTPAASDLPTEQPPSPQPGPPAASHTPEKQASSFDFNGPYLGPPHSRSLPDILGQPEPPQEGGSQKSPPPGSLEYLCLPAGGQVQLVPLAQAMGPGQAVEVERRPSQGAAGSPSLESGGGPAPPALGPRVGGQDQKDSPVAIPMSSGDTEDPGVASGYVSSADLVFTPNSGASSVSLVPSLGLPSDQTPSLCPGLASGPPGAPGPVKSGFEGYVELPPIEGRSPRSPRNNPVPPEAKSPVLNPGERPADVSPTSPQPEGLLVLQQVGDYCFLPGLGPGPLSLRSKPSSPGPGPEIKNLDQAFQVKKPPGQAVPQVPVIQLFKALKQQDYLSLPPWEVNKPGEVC

The next assay addresses T2, human CD131 P199A (human, UniProt P32927 17-897).
T2 construct: whole, on cells
T2 sequence (looked up): T1 sequence (looked up) with A131H, P183A

The target of another assay is T3, human CD131 D144A (human, UniProt P32927 17-897).
T3 construct: whole, on cells
T3 sequence (looked up): T1 sequence (looked up) with D128A, A131H

Numbering of substitutions follows the chain as printed.

B1: anti-CD131 antibody 131-B2, Fab (Fab, V domains shown)
VH: QVQLVQSGAEVKEPGASVKISCKASGYTFTNDYMHWVRQAPGQGLEWMGIINPTGGGTSYAQKFRGRVTMTRDTSTSTVYMELSSLRSEDTAVFYCARERYYGSGTYFNIGLWYFDLWGRGTLVTVSS
VL: not shown
notes: Fab made from the antibody by an enzyme treatment
Consider B1, for which the results for the “Binding Reactivity (% WT)” value with human CD131 H147A, with human CD131 P199A and in the assay with human CD131 D144A were 110 % WT, 96.8 % WT and 129 % WT, respectively.

These data come from patent US20250092148A1 (Kyowa Kirin, published 2025).
